Assay results published in patent publication US20260274985A1 (MYTHIC THERAPEUTICS, published 2026).

Experiments:
[1] = molecular target: T1, TROP2 on TROP2-positive NCI-H1975 cells (human, UniProt P09758 27-323); assay: binding to NCI-H1975 cells at pH 6.4, maximal MFI
T1 construct: Endogenous TROP2 of the human NCI-H1975 cell line; also called TACSTD2
T1 sequence: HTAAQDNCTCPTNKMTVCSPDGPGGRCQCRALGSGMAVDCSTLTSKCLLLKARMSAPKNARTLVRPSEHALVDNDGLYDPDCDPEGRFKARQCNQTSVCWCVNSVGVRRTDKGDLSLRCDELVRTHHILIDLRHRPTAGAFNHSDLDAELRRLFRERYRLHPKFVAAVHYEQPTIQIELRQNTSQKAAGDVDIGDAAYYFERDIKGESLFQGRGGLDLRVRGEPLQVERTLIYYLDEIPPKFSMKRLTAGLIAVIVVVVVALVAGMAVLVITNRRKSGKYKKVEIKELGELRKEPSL

[2] = molecular target: T1, TROP2 on TROP2-positive NCI-H1975 cells; assay: cell-based or functional assay
[3] = molecular target: T2, Human TROP2 Protein, His Tag (Acro Biosystems) (human, UniProt P09758 27-274); assay: BLI (Octet)
T2 construct: not shown: His tag
T2 sequence (looked up): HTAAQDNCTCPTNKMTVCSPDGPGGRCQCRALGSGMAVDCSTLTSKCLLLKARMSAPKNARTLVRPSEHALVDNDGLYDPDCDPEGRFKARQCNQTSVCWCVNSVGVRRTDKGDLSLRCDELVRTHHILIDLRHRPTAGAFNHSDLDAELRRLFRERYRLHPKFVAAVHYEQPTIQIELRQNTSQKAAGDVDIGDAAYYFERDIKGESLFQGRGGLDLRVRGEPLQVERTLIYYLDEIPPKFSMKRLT

[4] = molecular target: T1, TROP2 on TROP2-positive NCI-H1975 cells; assay: cell-based or functional assay; remark: listed apart in the source
[5] = molecular target: T2, Human TROP2 Protein, His Tag (Acro …); assay: Octet (BLI); antigen and pH not given
[6] = molecular target: T3, TROP2 on TROP2-positive NCI-H1975 cells (human, UniProt P09758 27-323); assay: binding to TROP2-positive NCI-H1975 cells at pH 6.7
T3 construct: whole, on cells
T3 sequence (looked up): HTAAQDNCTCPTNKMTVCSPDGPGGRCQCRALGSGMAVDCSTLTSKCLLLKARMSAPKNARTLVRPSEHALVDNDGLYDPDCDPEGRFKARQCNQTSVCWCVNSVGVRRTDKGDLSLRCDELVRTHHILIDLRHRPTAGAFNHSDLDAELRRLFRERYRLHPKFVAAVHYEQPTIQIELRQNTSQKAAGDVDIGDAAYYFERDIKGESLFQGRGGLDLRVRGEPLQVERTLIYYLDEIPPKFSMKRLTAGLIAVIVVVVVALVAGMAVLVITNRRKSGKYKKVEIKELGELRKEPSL

[7] = molecular target: T3, TROP2 on TROP2-positive NCI-H1975 cells; assay: binding to TROP2-positive NCI-H1975 cells at pH 7.4

Row | Binder | Max MFI (@ pH 6.4)-H1975 [1] [MFI] | binding result [3] | Cytotox Fold over datopotamab (FOD) [2] [fold over datopotamab] | further results
1 | MYT11614 (antibody, human IgG1, V domains shown, Human IgG1 heavy chain constant domain and Kappa light chain constant domain; also called Sacituzumab LC variant) VH: QVQLQQSGSELKKPGASVKVSCKASGYTFTNYGMNWVKQAPGQGLKWMGWINTYTGEPTYTDDFKGRFAFSLDTSVSTAYLQISSLKADDTAVYFCARGGFGSSYWYFDVWGQGSLVTVSS VL: DIQLTQSPSSLSASVGDRVSITCKASQDVHIAVAWYQQKPGKAPKLLIYSASYRYTGVPDRFSGSGSGTDFTLTISSLQPEDFAVYYCQQHYITPLTFGAGTKVEIK | 19400 | – | 1.35 | –
2 | MYT13427 (antibody, human IgG1, V domains shown, also called sacituzumab HC-LC pairing variant; Sacituzumab pH variant) VH: QVQLQQSGSELKKPGASVKVSCKASGYTFTNYGMNWVKQAPGQGLKWMGWINTYTGEPTYTDDHKGRFAFSLDTSVSTAYLQISSLKADDTAVYFCARGGFGSSYWYFDVWGQGSLVTVSS VL: DIQLTQSPSSLSASVGDRVSITCKASQDVHIAVAWYQQKPGKAPKLLIYSHSYRYTGVPDRFSGSGSGTDFTLTISSLQPEDFAVYYCQQHYHTPLTFGAGTKVEIK | 6110 | – | 1.19 | FOW H1975 (10 nM) [4]: 1.56 fold over parent antibody
3 | MYT13425 (antibody, human IgG1, V domains shown, IgG; also called Sacituzumab HC-LC pairing variant) VH: QVQLQQSGSELKKPGASVKVSCKASGYTFTNYGMNWVKQAPGQGLKWMGWINTYTGEPTYTHDFKGRFAFSLDTSVSTAYLQISSLKADDTAVYFCARGGFGSSYWYFDVWGQGSLVTVSS VL: DIQLTQSPSSLSASVGDRVSITCKASQDVHIAVAWYQQKPGKAPKLLIYSHSYRYTGVPDRFSGSGSGTDFTLTISSLQPEDFAVYYCQQHYHTPLTFGAGTKVEIK | – | – | – | Kd [5]: 3.9 nM; Octet response at 33.33 nM (Y-Axis) nm [5]: 0.135 nm; IC50 [6]: 2.66 nM; IC50 [7]: 0.81 nM
4 | MYT11670 (antibody, human IgG1, V domains shown, Human IgG1 heavy chain constant domain and Kappa light chain constant domain; also called Datopotamab pH variant) VH: QVQLVQSGAEVKKPGASVKVSCKASGYTFTTAGMQWVRQAPGQGLEWMGWINTHSGVPKYAEDFKGRVTISADTSTSTAYLQLSSLKSEDTAVYYCARSGFGSHYWYFDVWGQGTLVTVSS VL: DIQMTQSPSSLSASVGDRVTITCKASQDVSTAVAWYQQKPGKAPKLLIYSASYRYTGVPSRFSGSGSGTDFTLTISSLQPEDFAVYYCQQHYITPLTFGQGTKLEIK | 20000 | – | 1.41 | –
5 | MYT13428 (antibody, human IgG1, V domains shown, IgG; also called Sacituzumab HC-LC pairing variant) VH: QVQLQQSGSELKKPGASVKVSCKASGYTFTNYGMNWVKQAPGQGLKWMGWINTYTGEPTYTDDFHGRFAFSLDTSVSTAYLQISSLKADDTAVYFCARGGFGSSYWYFDVWGQGSLVTVSS VL: DIQLTQSPSSLSASVGDRVSITCKASQDVHIAVAWYQQKPGKAPKLLIYSHSYRYTGVPDRFSGSGSGTDFTLTISSLQPEDFAVYYCQQHYHTPLTFGAGTKVEIK | – | – | – | Kd [5]: 2.08 nM; Octet response at 33.33 nM (Y-Axis) nm [5]: 0.141 nm; IC50 [6]: 8.29 nM; IC50 [7]: 1.56 nM
6 | MYT13427 (antibody, human IgG1, V domains shown, IgG; also called Sacituzumab HC-LC pairing variant) VH: QVQLQQSGSELKKPGASVKVSCKASGYTFTNYGMNWVKQAPGQGLKWMGWINTYTGEPTYTDDHKGRFAFSLDTSVSTAYLQISSLKADDTAVYFCARGGFGSSYWYFDVWGQGSLVTVSS VL: DIQLTQSPSSLSASVGDRVSITCKASQDVHIAVAWYQQKPGKAPKLLIYSHSYRYTGVPDRFSGSGSGTDFTLTISSLQPEDFAVYYCQQHYHTPLTFGAGTKVEIK | – | – | – | Kd [5]: 2.12 nM; Octet response at 33.33 nM (Y-Axis) nm [5]: 0.134 nm; IC50 [6]: 4.39 nM; IC50 [7]: 1 nM
7 | MYT13369 (antibody, human IgG1, V domains shown, also called sacituzumab HC-LC pairing variant) VH: QVQLQQSGSELKKPGASVKVSCKASGYTFTNYGMNWVKQAPGQGLKWMGWINTYTGEPTYTHDFKGRFAFSLDTSVSTAYLQISSLKADDTAVYFCARGGFGSSYWYFDVWGQGSLVTVSS VL: DIQLTQSPSSLSASVGDRVSITCKASQDVHIAHAWYQQKPGKAPKLLIYSASYRYTGVPDRFSGSGSGTDFTLTISSLQPEDFAVYYCQQHYITPLTFGAGTKVEIK | 17100 | – | 1.33 | FOW H1975 (10 nM) [4]: 1.44 fold over parent antibody
8 | MYT13370 (antibody, human IgG1, V domains shown, also called sacituzumab HC-LC pairing variant; Sacituzumab pH variant) VH: QVQLQQSGSELKKPGASVKVSCKASGYTFTNYGMNWVKQAPGQGLKWMGWINTYTGEPTYTDHFKGRFAFSLDTSVSTAYLQISSLKADDTAVYFCARGGFGSSYWYFDVWGQGSLVTVSS VL: DIQLTQSPSSLSASVGDRVSITCKASQDVHIAHAWYQQKPGKAPKLLIYSASYRYTGVPDRFSGSGSGTDFTLTISSLQPEDFAVYYCQQHYITPLTFGAGTKVEIK | 13400 | – | 1.28 | FOW H1975 (10 nM) [4]: 1.43 fold over parent antibody
9 | MYT11704 (antibody, human IgG1, V domains shown, Human IgG1 heavy chain constant domain and Kappa light chain constant domain; also called hu7E6SVG WT; hu7E6SVG) VH: QVQLQESGPGLVKPSETLSLTCTVSGGSISSYGVHWIRQPPGKGLEWIGVIWTSGVTDYNSALMGRVTISVDTSKNQFSLKLSSVTAADTAVYYCARDGDYDRYTMDYWGQGTLVTVSS VL: DIVMTQSPDSLAVSLGERATINCRASKSVSTSGYSYMHWYQQKPGQPPKLLIYLASNLESGVPDRFSGSGSGTDFTLTISSLQAEDVAVYYCQHSRELPYTFGQGTKLEIK | 31500 | – | 1.22 | –
10 | MYT12459 (antibody, human IgG1, V domains shown, Human IgG1 heavy chain constant domain and Kappa light chain constant domain; also called hu7E6SVG pH variant) VH: QVQLQESGPGLVKPSETLSLTCTVSGGSISSYGVHWIRQPPGKGLEWIGVIWTSGVTDYNSALMGRVTISVDTSKNQFSLKLSSVTAADTAVYYCARDGDYDRYTMDYWGQGTLVTVSS VL: DIVMTQSPDSLAVSLGERATINCRASKSVSTSGYSYMHWYQQKPGQPPKLLIYLASNLHSGVPDRFSGSGSGTDFTLTISSLQAEDVAVYYCHHSRHLPYTFGQGTKLEIK | 18700 | – | 1.35 | –

The next lines start with results.

Row | Max MFI (@ pH 6.4)-H1975 [1] [MFI] | binding result [3] | Binder | Cytotox Fold over datopotamab (FOD) [2] [fold over datopotamab] | further results
11 | – | binds | MYT13261 (antibody, V domains shown, Full-length IgG from Expi293 supernatant; also called datopotamab heavy chain and light chain pairing variant) VH: QVQLVQSGAEVKKPGASVKVSCKASGYTFTTAGMQWVRQAPGQGLEWMGWINTHSGVPKYAEDFKGRVTISADTSTSTAYLQLSSLKSEDTAVYYCAHSGFGSSYWYFDVWGQGTLVTVSS VL: DIQMTQSPSSLSASVGDRVTITCKASQDVSTAVAWYQQKPGKAPKLLIYSAHYRYTGVPSRFSGSGSGTDFTLTISSLQPEDFAVYYCQQHYITPLTFGQGTKLEIK | – | –
12 | – | binds | MYT13262 (antibody, V domains shown, Full-length IgG from Expi293 supernatant; also called datopotamab heavy chain and light chain pairing variant) VH: QVQLVQSGAEVKKPGASVKVSCKASGYTFTTAGMQWVRQAPGQGLEWMGWINTHSGVPKYAEDFKGRVTISADTSTSTAYLQLSSLKSEDTAVYYCARSGHGSSYWYFDVWGQGTLVTVSS VL: DIQMTQSPSSLSASVGDRVTITCKASQDVSTAVAWYQQKPGKAPKLLIYSAHYRYTGVPSRFSGSGSGTDFTLTISSLQPEDFAVYYCQQHYITPLTFGQGTKLEIK | – | –
13 | – | binds | MYT13258 (antibody, V domains shown, Full-length IgG from Expi293 supernatant; also called datopotamab heavy chain and light chain pairing variant) VH: QVQLVQSGAEVKKPGASVKVSCKASGYTFTTAGMQWVRQAPGQGLEWMGWINTHSGVPKYAEDFKGRVTISADTSTSTAYLQLSSLKSEDTAVYYCARSGHGSSYWYFDVWGQGTLVTVSS VL: DIQMTQSPSSLSASVGDRVTITCKASQDHSTAVAWYQQKPGKAPKLLIYSASYRYTGVPSRFSGSGSGTDFTLTISSLQPEDFAVYYCQQHYITPLTFGQGTKLEIK | – | –
14 | – | binds | MYT13259 (antibody, V domains shown, Full-length IgG from Expi293 supernatant; also called datopotamab heavy chain and light chain pairing variant) VH: QVQLVQSGAEVKKPGASVKVSCKASGYTFTTAGMQWVRQAPGQGLEWMGWINTHSGVPKYAEDFKGRVTISADTSTSTAYLQLSSLKSEDTAVYYCARSGFGSHYWYFDVWGQGTLVTVSS VL: DIQMTQSPSSLSASVGDRVTITCKASQDHSTAVAWYQQKPGKAPKLLIYSASYRYTGVPSRFSGSGSGTDFTLTISSLQPEDFAVYYCQQHYITPLTFGQGTKLEIK | – | –
15 | 6720 | – | MYT13428 (antibody, human IgG1, V domains shown, also called sacituzumab HC-LC pairing variant) VH: QVQLQQSGSELKKPGASVKVSCKASGYTFTNYGMNWVKQAPGQGLKWMGWINTYTGEPTYTDDFHGRFAFSLDTSVSTAYLQISSLKADDTAVYFCARGGFGSSYWYFDVWGQGSLVTVSS VL: DIQLTQSPSSLSASVGDRVSITCKASQDVHIAVAWYQQKPGKAPKLLIYSHSYRYTGVPDRFSGSGSGTDFTLTISSLQPEDFAVYYCQQHYHTPLTFGAGTKVEIK | 1.18 | FOW H1975 (10 nM) [4]: 1.55 fold over parent antibody
16 | – | binds | MYT13269 (antibody, V domains shown, Full-length IgG from Expi293 supernatant; also called datopotamab heavy chain and light chain pairing variant) VH: QVQLVQSGAEVKKPGASVKVSCKASGYTFTTAGMQWVRQAPGQGLEWMGWINTHSGVPKYAEDFKGRVTISADTSTSTAYLQLSSLKSEDTAVYYCAHSGFGSSYWYFDVWGQGTLVTVSS VL: DIQMTQSPSSLSASVGDRVTITCKASQDVSTAVAWYQQKPGKAPKLLIYSASYRYTGVPSRFSGSGSGTDFTLTISSLQPEDFAVYYCQHHYITPLTFGQGTKLEIK | – | –
